Holding throughout (assay): HEK293E cell binding; avid
The target in assay [1] is T1, human CLDN6 (UniProt P56747 1-220).
T1 chain: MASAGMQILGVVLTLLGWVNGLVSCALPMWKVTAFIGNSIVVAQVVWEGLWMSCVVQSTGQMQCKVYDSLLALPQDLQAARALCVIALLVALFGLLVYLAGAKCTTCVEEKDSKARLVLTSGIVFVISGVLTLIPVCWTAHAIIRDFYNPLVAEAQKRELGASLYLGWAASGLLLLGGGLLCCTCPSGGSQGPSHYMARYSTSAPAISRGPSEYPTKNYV

The target in assay [2] is T2, human CLDN9 (UniProt O95484 1-217).
T2 chain: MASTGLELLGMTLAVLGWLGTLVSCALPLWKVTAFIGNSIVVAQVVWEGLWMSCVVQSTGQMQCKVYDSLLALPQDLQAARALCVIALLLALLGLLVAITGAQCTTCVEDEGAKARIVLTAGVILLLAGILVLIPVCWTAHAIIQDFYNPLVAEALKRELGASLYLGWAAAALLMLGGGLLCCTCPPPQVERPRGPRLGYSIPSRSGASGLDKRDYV

For assay [3], the target named is T1, human CLDN6.
In assay [4] the target is T2, human CLDN9.

Like-named read-outs stand apart in the source and are kept apart here.

From patent US20240400675A1 (published 2024) come the findings set out here.

B1: XENP34218, humanized C6-30 H1L1 bivalent mAb (antibody, V domains shown)
VH: QVQLVQSGAEVKKPGASVKVSCKTSGYTFTEYTMHWVRQAPGQSLEWMGGIDPNNGNTHYNQKFQGRVTITVDKSASTAYMELSSLRSEDTAVYYCARIYYFGRLYFDFWGAGTLVTVSS
VL: DIQMTQSPSSLSASVGDRVTITCQASEDIYNRLAWYQQKPGKVPKLLISGATSLETGVPSRFSGSGSGKDYTFTISSLQPEDIATYYCQQYWSSPLTFGGGTKVEIKR
Usually EC50 stands for the concentration at which the effect is half-maximal. Lower therefore signals an effect from little substance. As to B1, the EC50 is 1.24 µg/mL with human CLDN6 [1], 54.2 µg/mL with human CLDN9 [2], 0.344 µg/mL with human CLDN6 [3] and 11.6 µg/mL with human CLDN9 [4].

B2: XENP35888 H1.24_L1 (antibody, V domains shown)
VH: QVQLVQSGAEVKKPGASVKVSCKTSGYTFTEYTMHWVRQAPGQSLEWMGGIDPNNGNTHYNQKFQGRVTITVDKSASTAYMELSSLRSEDTAVYYCARIYYLGRLYFDFWGAGTLVTVSS
VL: DIQMTQSPSSLSASVGDRVTITCQASEDIYNRLAWYQQKPGKVPKLLISGATSLETGVPSRFSGSGSGKDYTFTISSLQPEDIATYYCQQYWSSPLTFGGGTKVEIKR
On to B2, for which the EC50 with human CLDN6 [3] worked out at 0.657 µg/mL; in the assay with human CLDN9 [4] it was 43.8 µg/mL.

B3: XENP35865 H2_L1.60 (antibody, V domains shown)
VH: EVQLVQSGAEVKKPGESLRISCKTSGYTFTEYTMHWVRQMPGKSLEWMGGIDPNNGNTHYNQKFQGHVTISVDKSISTAYLQWSSLKASDTAMYYCARIYYFGRLYFDFWGAGTLVTVSS
VL: DIQMTQSPSSLSASVGDRVTITCQASEDIYNRLAWYQQKPGKVPKLLISGATSLETGVPSRFSGSGSGKDYTFTISSLQPEDIATYYCQQLWSSPLTFGGGTKVEIKR
With B3, the EC50 with human CLDN6 [3] was found to be 0.686 µg/mL; with human CLDN9 [4], 124 µg/mL.

B4: XENP36040 H2.90_L1 (antibody, V domains shown)
VH: EVQLVQSGAEVKKPGESLRISCKTSGYTFTEYTMHWVRQMPGKSLEWMGGIDPNNLNTHYNQKFQGHVTISVDKSISTAYLQWSSLKASDTAMYYCARIYYFGRLYFDFWGAGTLVTVSS
VL: DIQMTQSPSSLSASVGDRVTITCQASEDIYNRLAWYQQKPGKVPKLLISGATSLETGVPSRFSGSGSGKDYTFTISSLQPEDIATYYCQQYWSSPLTFGGGTKVEIKR
Consider B4, for which the EC50 with human CLDN6 [3] was determined as 0.706 µg/mL; with human CLDN9 [4], 66.1 µg/mL.

B5: XENP35891 H2.12_L1 (antibody, V domains shown)
VH: EVQLVQSGAEVKKPGESLRISCKTSGYDFTEYTMHWVRQMPGKSLEWMGGIDPNNGNTHYNQKFQGHVTISVDKSISTAYLQWSSLKASDTAMYYCARIYYFGRLYFDFWGAGTLVTVSS
VL: DIQMTQSPSSLSASVGDRVTITCQASEDIYNRLAWYQQKPGKVPKLLISGATSLETGVPSRFSGSGSGKDYTFTISSLQPEDIATYYCQQYWSSPLTFGGGTKVEIKR
On to B5, for which the EC50 came to 0.474 µg/mL with human CLDN6 [3] and 44.1 µg/mL in the assay with human CLDN9 [4].

B6: XENP35981 H2_L1.189 (antibody, V domains shown)
VH: EVQLVQSGAEVKKPGESLRISCKTSGYTFTEYTMHWVRQMPGKSLEWMGGIDPNNGNTHYNQKFQGHVTISVDKSISTAYLQWSSLKASDTAMYYCARIYYFGRLYFDFWGAGTLVTVSS
VL: DIQMTQSPSSLSASVGDRVTITCQASEDIYLRLAWYQQKPGKVPKLLISGATSLETGVPSRFSGSGSGKDYTFTISSLQPEDIATYYCQQYWSSPLTFGGGTKVEIKR
Regarding B6, the EC50 with human CLDN6 [3] was found to be 0.404 µg/mL; with human CLDN9 [4], 31.7 µg/mL.

B7: XENP34220, humanized C6-30 H2L1 bivalent mAb (antibody, V domains shown)
VH: EVQLVQSGAEVKKPGESLRISCKTSGYTFTEYTMHWVRQMPGKSLEWMGGIDPNNGNTHYNQKFQGHVTISVDKSISTAYLQWSSLKASDTAMYYCARIYYFGRLYFDFWGAGTLVTVSS
VL: DIQMTQSPSSLSASVGDRVTITCQASEDIYNRLAWYQQKPGKVPKLLISGATSLETGVPSRFSGSGSGKDYTFTISSLQPEDIATYYCQQYWSSPLTFGGGTKVEIKR
As for B7, the EC50 with human CLDN6 [1] stood at 1.63 µg/mL; with human CLDN9 [2], 43.8 µg/mL; in the assay with human CLDN6 [3] it was 0.391 µg/mL; with human CLDN9 [4], 11.1 µg/mL.

B8: XENP35979 H2_L1.187 (antibody, V domains shown)
VH: EVQLVQSGAEVKKPGESLRISCKTSGYTFTEYTMHWVRQMPGKSLEWMGGIDPNNGNTHYNQKFQGHVTISVDKSISTAYLQWSSLKASDTAMYYCARIYYFGRLYFDFWGAGTLVTVSS
VL: DIQMTQSPSSLSASVGDRVTITCQASEDIVNRLAWYQQKPGKVPKLLISGATSLETGVPSRFSGSGSGKDYTFTISSLQPEDIATYYCQQYWSSPLTFGGGTKVEIKR
B8: the EC50 with human CLDN6 [3] came to 0.323 µg/mL; with human CLDN9 [4], 29.2 µg/mL.

B9: XENP35890 H2.11_L1 (antibody, V domains shown)
VH: EVQLVQSGAEVKKPGESLRISCKTSGYSFTEYTMHWVRQMPGKSLEWMGGIDPNNGNTHYNQKFQGHVTISVDKSISTAYLQWSSLKASDTAMYYCARIYYFGRLYFDFWGAGTLVTVSS
VL: DIQMTQSPSSLSASVGDRVTITCQASEDIYNRLAWYQQKPGKVPKLLISGATSLETGVPSRFSGSGSGKDYTFTISSLQPEDIATYYCQQYWSSPLTFGGGTKVEIKR
B9: the results for the EC50 in the assay with human CLDN6 [3] and with human CLDN9 [4] were 0.408 µg/mL and 34.1 µg/mL, respectively.

B10: XENP35090 H1.6_L1 (antibody, V domains shown)
VH: QVQLVQSGAEVKKPGASVKVSCKTSGYTFTEYTMHWVRQAPGQSLEWMGGIDPNSGNTHYNQKFQGRVTITVDKSASTAYMELSSLRSEDTAVYYCARIYYFGRLYFDFWGAGTLVTVSS
VL: DIQMTQSPSSLSASVGDRVTITCQASEDIYNRLAWYQQKPGKVPKLLISGATSLETGVPSRFSGSGSGKDYTFTISSLQPEDIATYYCQQYWSSPLTFGGGTKVEIKR
Consider B10, for which the EC50 was 1.56 µg/mL with human CLDN6 [1], 44.6 µg/mL with human CLDN9 [2], 0.903 µg/mL with human CLDN6 [3] and 7.06 µg/mL with human CLDN9 [4].

B11: XENP35886 H1.22_L1 (antibody, V domains shown)
VH: QVQLVQSGAEVKKPGASVKVSCKTSGYTFTEYTMHWVRQAPGQSLEWMGGIDPNNGNTHYNQKFQGRVTITVDKSASTAYMELSSLRSEDTAVYYCARILYFGRLYFDFWGAGTLVTVSS
VL: DIQMTQSPSSLSASVGDRVTITCQASEDIYNRLAWYQQKPGKVPKLLISGATSLETGVPSRFSGSGSGKDYTFTISSLQPEDIATYYCQQYWSSPLTFGGGTKVEIKR
Consider B11, for which the results for the EC50 with human CLDN6 [3] and with human CLDN9 [4] were 0.941 µg/mL and 24.5 µg/mL, respectively.
